In publication doi:10.1101/2024.09.13.612588 (bioRxiv, 2024):

Biological target: the molecule itself
Assay: high-speed AFM

B1: Toll/interleukin-1 receptor domain of MyD88 (TIR_(MyD88)), wild type (domain or fragment)
chain: PLGHMPERFDAFICYCPSDIQFVQEMIRQLEQTNYRLKLCVSDRDVLPGTCVWSIASELIEKRCRRMVVVVSDDYLQSKECDFQTKFALSLSPGAHQKRLIPIKYKAMKKEFPSILRFITVCDYTNPCTKSWFWTRLAKALSLP
How did the “stoichiometry N” value turn out when B1 was run?
The value was 58 subunits.
